Measured values published in US20220402979A1 (AXON NEUROSCIENCE, published 2022).

Experiments:
[1] = target: T1, recombinant human mis-disordered tau protein (tau151-391/4R) (human, UniProt P10636 468-708); assay: SPR, target 'Pathological Tau151-391_4R'; literature table, Jadhav et al. 2019; AVIDITY 'nd.'
T1 construct: No tags are stated; also called pathological tau

Human Tau2N4R = target: T2, Human Tau2N4R; assay: SPR; literature table, Jadhav et al. 2019; AVIDITY 'nd.'
T2 construct: target in SPR of the literature rows
T2 sequence (single chain, as listed by the source limits assumed): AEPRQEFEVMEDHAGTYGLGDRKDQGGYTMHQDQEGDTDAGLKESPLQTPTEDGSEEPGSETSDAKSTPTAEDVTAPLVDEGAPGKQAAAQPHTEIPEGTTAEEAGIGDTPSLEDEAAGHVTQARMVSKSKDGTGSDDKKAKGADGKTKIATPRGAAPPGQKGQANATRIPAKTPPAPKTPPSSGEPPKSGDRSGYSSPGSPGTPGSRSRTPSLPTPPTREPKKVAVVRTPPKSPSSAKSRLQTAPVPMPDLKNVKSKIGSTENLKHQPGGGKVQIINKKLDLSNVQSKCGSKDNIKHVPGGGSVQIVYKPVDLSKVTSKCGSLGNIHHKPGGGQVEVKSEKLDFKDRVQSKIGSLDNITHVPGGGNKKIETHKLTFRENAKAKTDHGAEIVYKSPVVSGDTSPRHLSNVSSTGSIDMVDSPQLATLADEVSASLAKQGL

T1 sequence (P10636 468-708): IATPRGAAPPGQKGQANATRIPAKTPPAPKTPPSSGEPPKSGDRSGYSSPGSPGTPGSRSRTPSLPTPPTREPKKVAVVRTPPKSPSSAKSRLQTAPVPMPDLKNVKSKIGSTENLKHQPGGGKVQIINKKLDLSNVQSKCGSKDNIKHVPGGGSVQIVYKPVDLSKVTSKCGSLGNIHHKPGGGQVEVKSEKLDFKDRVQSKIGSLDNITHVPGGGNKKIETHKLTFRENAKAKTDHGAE

B1: DC8E8 (antibody, V domains shown)
VH: QVQLQQSGPELVKPGTSVKMPCKASGYIFTDYVISWVKQRTGQGLEWIGEIFPRSGSTYYNEKFKGKATLTADKSSNTAYMQLSSVTSEDSAVYFCARDYYGTSFAMDYWGQGTSVTVSS
VL: DIVMSQSPSSLAVSAGEKVTMSCKSSQSLLNSRTRKNYLAWYQQKPGQSPKLLIYWASTRESGVPDRFTGSGSGTDFTLTISSVQAEDLAVYYCKQSFYLRTFGGGTKLDIK
B1 gave a Kd [1] of 0.014 µM and a Kd (Human Tau2N4R) of 0.091 µM.
